Numbering of substitutions follows the chain as printed.
Tests used:
[1] = target: T1, human TNFα (Tumor Necrosis Factor-alpha), soluble (human, UniProt P01375 77-233); assay: KinExA, TNFα counted as one trimer; KinExA in solution; TNFα site concentration as one trimer (52.5 kDa)
T1 construct: Recombinant (R&D 210-TA/CF) in screens; biotinylated in the limited antigen assay; also called hTNFα; H-TNFα
Protocol: (§1) The kinetic measurements of the anti-TNFα antibodies were evaluated using KinExA® and BIACORE® technologies. The KinExA® method involves solution-based determination of formal affinity measurements at equilibrium. To measure the binding kinetics of each human anti-TNFα antibody, two experiments in replicates of three were performed. In both experiments a known concentration of antigen was titrated and a different antibody concentration was added to each antigen titration and allowed to reach binding equilibrium. […] The results were analyzed by dual curve analysis. […] In addition, to negate the possibility of avidity effects, Fab fragments were generated by papain cleavage and the kinetic analysis was repeated (see Table 24).

[2] = target: T1, human TNFα (Tumor Necrosis …); assay: KinExA, TNFα counted as one trimer; KinExA, one trimer (52.5 kDa); upper bound of the Kd fit
Protocol: as §1

[3] = target: T1, human TNFα (Tumor Necrosis …); assay: KinExA, TNFα counted as three monomers
Protocol: as §1

[4] = target: T1, human TNFα (Tumor Necrosis …); assay: KinExA, TNFα counted as three monomers; KinExA in solution; TNFα site concentration as three monomers (17.5 kDa)
Protocol: as §1

[5] = target: T1, human TNFα (Tumor Necrosis …); assay: KinExA, TNFα counted as one trimer; KinExA, one trimer (52.5 kDa); lower bound of the Kd fit
Protocol: as §1

[6] = target: T1, human TNFα (Tumor Necrosis …); assay: KinExA, TNFα counted as three monomers; KinExA, three monomers (17.5 kDa); upper bound of the Kd fit
Protocol: as §1

human GST-TNFα = target: T2, human GST-TNFα (human, UniProt P01375 77-233); assay: ELISA, plate coated with 0.5 µg/ml human GST-TNFα, HRP goat anti-human IgG detection
T2 construct: also called E. coli expressed soluble human TNF; not shown: GST fusion partner
Protocol: (§2) Anti-TNFα antibodies were also tested for their ability to bind to soluble recombinant TNFα. Human and monkey (cynomolgous macaque) TNFα were expressed in E. coli as fusion proteins with GST. Binding was assessed by ELISA. […] Bound antibody was detected using an HRP-conjugated goat anti-human IgG antibody.

[7] = target: transmembrane mutant TNFα expressed on the surface of CHO cells (UniProt P01375 1-233); assay: cell-based or functional assay
human TNFα R31Q mutant = human TNFα R31Q mutant (human, UniProt P01375 77-233); assay: ELISA on chimeric/mutant TNFα
Description: (§3) In order to define the binding site for different antibodies, a number of residues of hTNFα were mutated using site directed mutagenesis. A panel of antibodies was screened for binding by an ELISA assay. […] Histidine at position 73 was deleted, an example is illustrated in Table 19.

[8] = target: human TNFα R31Q, Q27E mutant (human, UniProt P01375 77-233); assay: ELISA on chimeric/mutant TNFα
Description: as §3

human TNFα R131Q mutant = human TNFα R131Q mutant (human, UniProt P01375 77-233); assay: ELISA on chimeric/mutant TNFα
Description: as §3

[9] = target: T1, human TNFα (Tumor Necrosis …); assay: cell-based or functional assay
[10] = target: T1, human TNFα (Tumor Necrosis …); assay: cell-based or functional assay; remark: listed apart in the source
[11] = target: T3, monkey (cynomolgous macaque) GST-TNFα (cynomolgous macaque, UniProt P79337 77-233); assay: ELISA, plate coated with 2 µg/ml monkey (cynomolgus macaque) GST-TNFα, HRP goat anti-human IgG detection
T3 construct: also called E. coli expressed soluble cynomolgous macaque monkey TNF; monkey TNFα; not shown: GST fusion partner
Protocol: as §2

[12] = target: T1, human TNFα (Tumor Necrosis …); assay: KinExA, TNFα counted as one trimer
Protocol: as §1

mouse TNFα = target: T4, mouse TNFα (mouse, UniProt P06804 80-235); assay: binding to chimeric TNF proteins
T4 construct: also called M TNFα; murine TNF
T4 sequence: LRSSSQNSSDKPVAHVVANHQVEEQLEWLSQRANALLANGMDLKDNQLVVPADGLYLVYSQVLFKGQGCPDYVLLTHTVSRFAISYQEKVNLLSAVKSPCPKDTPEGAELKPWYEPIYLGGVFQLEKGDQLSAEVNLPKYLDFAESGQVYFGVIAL

[13] = target: T1, human TNFα (Tumor Necrosis …); assay: cell-based or functional assay; remark: listed apart in the source
[14] = target: T1, human TNFα (Tumor Necrosis …); assay: cell-based or functional assay; remark: listed apart in the source
[15] = target: T5, H/M HincII chimeric TNFα (human 1-91, murine 92-157) (human; mouse); assay: ELISA on chimeric/mutant TNFα
T5 construct: Murine range printed 92-157 (human-aligned); also called Hu/M Hin C l1
T5 chain: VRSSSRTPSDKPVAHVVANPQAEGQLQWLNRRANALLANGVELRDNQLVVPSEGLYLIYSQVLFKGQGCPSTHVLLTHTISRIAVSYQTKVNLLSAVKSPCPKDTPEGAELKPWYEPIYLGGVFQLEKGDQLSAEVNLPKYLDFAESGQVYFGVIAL
Description: as §3

[16] = target: T6, H/M BglI chimeric TNFα (human 1-36, murine 37-157) (human; mouse, UniProt P06804 81-235); assay: ELISA on chimeric/mutant TNFα
T6 construct: Murine range is printed as 37-157 in human-aligned numbering; also called H/MBgl1; Hu/MBgl1
T6 chain: T4 sequence with L1V, Q6R, N7T, S8P, H20P, V22A, E24G, E27Q, S30N, Q31R
Description: as §3

[17] = target: T7, H/M PvuII chimeric TNFα (human 1-125, murine 126-157) (human; mouse); assay: ELISA on chimeric/mutant TNFα
T7 construct: also called Hu/M PVu11
T7 chain: T5 chain with V97I, P102Q, K103R, D104E, L111A
Description: as §3

[18] = target: T1, human TNFα (Tumor Necrosis …); assay: KinExA, unknown antigen concentration method
Protocol: as §1

[19] = target: T1, human TNFα (Tumor Necrosis …); assay: KinExA, Fab from papain cleavage
Protocol: as §1

[20] = target: T5, H/M HincII chimeric TNFα (human 1-91, …); assay: ELISA on expressed TNFα constructs
[21] = target: T6, H/M BglI chimeric TNFα (human 1-36, …); assay: ELISA on expressed TNFα constructs
[22] = target: T7, H/M PvuII chimeric TNFα (human 1-125, …); assay: ELISA on expressed TNFα constructs

Sequence of human TNFα R31Q mutant (P01375 77-233 R107Q): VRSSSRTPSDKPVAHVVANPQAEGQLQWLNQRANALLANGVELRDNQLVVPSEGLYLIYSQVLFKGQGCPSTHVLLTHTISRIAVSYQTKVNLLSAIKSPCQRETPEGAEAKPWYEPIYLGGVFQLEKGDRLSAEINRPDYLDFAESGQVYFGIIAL
Sequence of transmembrane mutant TNFα expressed on the surface of CHO cells (P01375 whole entry, stated change not applied, form in doubt): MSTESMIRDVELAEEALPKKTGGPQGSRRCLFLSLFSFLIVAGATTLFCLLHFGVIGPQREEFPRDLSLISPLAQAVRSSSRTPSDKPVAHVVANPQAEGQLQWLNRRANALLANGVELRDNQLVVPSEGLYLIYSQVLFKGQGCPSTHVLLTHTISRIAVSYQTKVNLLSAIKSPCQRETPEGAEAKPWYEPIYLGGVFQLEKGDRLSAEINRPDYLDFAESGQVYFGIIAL

B1: 3.2 (hybridoma, IgG2) (antibody, V domains shown)
VH: EVQLVQSGAEVKKPGESLKISCKTSEYSFTSYWIGWVRQMPGKGLEWMGIIYLGDSDTRYSPSFQGQVTISADKSISTAYLQWSSLKASDTAMYYCARSNWGLDYWGQGTLVTVSS
VL: QSVLTQPPSVSGAPGQRVTISCTGSSSNIGAGYDVHWYQQFPGTAPKLLIQGNSNRPSGVPDRFSGSKSGTSASLAITGLQAEDEADYYCQSYDSSLSGSVFGGGTKLTVL
notes: Hybridoma derived human IgG2, lambda light chain (V1-13/JL3); also called 3.2 Ab; 3.2.1
Kd [1]: 4.77 pM
Kd (M) High [2]: 7.6e-12 M
Kd (M) Low [3]: 7.3e-12 M
Kd [4]: 14.3 pM
Kd (M) Low [5]: 2.43e-12 M
Kd (M) High [6]: 2.3e-11 M

B2: 263 (antibody, human IgG1, V domains shown)
VH: EVQLVESGGGLIQPGGSLRLSCAASGFTVSRNYMSWVRQAPGKGLEWVSVIYSGDRTYYADSVKGRFTISRDNSKNTLYLQMNSLRAEDTAVYYCARGEGGFDYWGQGTLVTVSS
VL: EIVMTQSPATLSVSPGERATLSCRASQSVSSNLAWYQQKPGQAPRLLIHGASIRATGLPARFSGSGSGTEFTLTISSLQSEDFAVYYCQQYNYWWTFGQGTKVEIK
notes: XENOMAX derived, recombinant human IgG1 kappa; also called SC263
EC50 (read off the curve) (human GST-TNFα): ~3 ng/mL
ADCC (%) [7]: 10%
CDC (%) [7]: 17%
binding result (human TNFα R31Q mutant): binds
binding result [8]: binds
binding result (human TNFα R131Q mutant): binds
In vivo Potency (IC50), ALT, hTNFα/D-GalN hepatic injury in mice [9]: 48000 pM
In vivo Potency (IC50), human TNFα-induced IL-6 in mice [9]: 35000 pM
Kd [3]: 11.2 pM
Whole Blood IC50, TNFα-induced IL-8 production [10]: 524 pM
binding result [11]: no binding (tested: 100 ng/ml)
Kd [12]: 3.73 pM
binding result (mouse TNFα): no binding
IC50 1 hr Pre-incubation, TNF induced apoptosis in MCF-7 cells [13]: 59.5 pM
IC50 18 hr Pre-incubation, TNF induced apoptosis in MCF-7 cells [13]: 37 pM

B3: Rabbit R014 (AB-TNFα-R014) (antibody, rabbit IgG1, V domains shown)
VH: QSLEESGGRLVTPGTPLTLTCTVSGIDLSSNTMGWFRRAPGKGLEWIGIIISSGTTYYASWVKGRFTISKTSTTVDLKITRPTTEDTATYFCARGWYEFNLWGPGTLVTVSS
VL: DVVMTQTPASVEAAVGGTVTIKCQASENIDILLAWYQQKVGQPPKLLIYRASKLASGAPSRFSGSGSGTEFTLTISDLECGDAATYYCQSNVGSTARSSYGNAFGGGTEVVVK
notes: Fully rabbit antibody, rabbit IgG1 heavy and kappa constant regions; cloned from well 7A4; also called RO14; Rabbit 014
Average IC50, TNF induced apoptosis on MCF-7 cells, 1 hour pre-incubation [14]: 14.2 pM
binding result (human TNFα R31Q mutant): binds
binding result [8]: binds
binding result (human TNFα R131Q mutant): binds
binding result [15]: binds
binding result [16]: binds
binding result [17]: binds
Kd [18]: 0.787 pM
Kd (M) High [18]: 2.47e-12 M
Kd (M) Low [18]: 1.56e-13 M

B4: Rabbit R014 Fab (Fab, V domains shown)
VH: B3 VH
VL: B3 VL
notes: Fab made by papain cleavage of R014
Kd [19]: 0.638 pM
Kd (M) High [19]: 1.94e-10 M
Kd (M) Low [19]: 2.09e-15 M

B5: 4.17 (hybridoma, IgG2) (antibody, V domains shown)
VH: QVQLVESGGGVVQPGRSLRLSCTTSGFTFSNYGMHWVRQAPGKGLEWVAVIWYDGSIKYYVDSVKGRFTISRDNSKNTLYLQMNSLRAEDTAVYYCAREKDCGGDCYSHYGMDVWGQGTTVTVSS
VL: DIQMTQSPSSLSASVGDRVTITCRASQGIRNDLGWYQQKPGKAPKRLIYAASSLQSGVPSRFSGSGSGTEFTLTISSLQPEDFATYYCLQHMSLPLTFGGGTKVEIK
notes: Hybridoma derived human IgG2 kappa
binding result (human TNFα R131Q mutant): binds
binding result [20]: binds
binding result [21]: binds
binding result [22]: binds
